These results are taken from patent US20170008928A1, “NOVEL PEPTIDES AND PEPTIDE DERIVATIVES AND USES THEREOF” (Novo Nordisk A/S, priority 2015, published 2017).

Starred links: 1 amine or outer side, 2 acyl side, 3 side chain; linkers in the order of their positions; H or OH if unused. Non-standard residues stand in square brackets, D forms with d. Residues, ends and D or L forms follow the SMILES beside them. No end group written: not given here. *: point of attachment. sY = N[C@@H](Cc1ccc(OS(=O)(=O)O)cc1)C(=O)O; C18 diacid = O=C(O)CCCCCCCCCCCCCCCCC(=O)*; C16 diacid = O=C(O)CCCCCCCCCCCCCCC(=O)*; γGlu = O=C(O)[C@H](CCC(=O)[*:2])N[*:1]; C14 diacid = O=C(O)CCCCCCCCCCCCC(=O)*; NMeF = CN[C@@H](Cc1ccccc1)C(=O)O; dNMeD = CN[C@H](CC(=O)O)C(=O)O; Nle = CCCC[C@H](N)C(=O)O; AEEA = NCCOCCOCC(=O)O Where only a bound is given, the exact number is not on record here.

T1: human cholecystokinin-2 receptor (human, UniProt P32239 1-447)
T1 sequence (looked up): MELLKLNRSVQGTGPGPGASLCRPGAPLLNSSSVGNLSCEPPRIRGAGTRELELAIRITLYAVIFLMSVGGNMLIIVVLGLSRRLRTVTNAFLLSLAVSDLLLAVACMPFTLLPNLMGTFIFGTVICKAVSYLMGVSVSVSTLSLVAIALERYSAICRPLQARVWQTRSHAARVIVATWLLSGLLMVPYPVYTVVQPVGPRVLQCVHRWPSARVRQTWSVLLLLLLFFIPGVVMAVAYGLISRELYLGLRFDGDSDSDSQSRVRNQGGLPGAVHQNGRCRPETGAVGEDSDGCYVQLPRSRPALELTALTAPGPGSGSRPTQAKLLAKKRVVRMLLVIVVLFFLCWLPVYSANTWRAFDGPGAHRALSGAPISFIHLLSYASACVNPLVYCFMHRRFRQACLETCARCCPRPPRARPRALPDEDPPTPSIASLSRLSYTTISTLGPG

T2: human cholecystokinin-2 receptor (CCK-2R) (Homo sapiens, UniProt P32239)
T2 construct: host or cells: 1321-N1 cells (plasma membranes prepared by Evotec AG Hamburg)
T2 sequence (P32239 1-447): T1 sequence (looked up)

B1: Glu-sTyr-Leu-Gly-Trp-Nle-DMeAsp-Phe-amide (peptide)
peptide: E[sY]LGW[Nle][dNMeD]F-NH2
modifications: N-terminus assumed
SMILES: CCCC[C@H](NC(=O)[C@H](Cc1c[nH]c2ccccc12)NC(=O)CNC(=O)[C@H](CC(C)C)NC(=O)[C@H](Cc1ccc(OS(=O)(=O)O)cc1)NC(=O)[C@@H](N)CCC(=O)O)C(=O)N(C)[C@H](CC(=O)O)C(=O)N[C@@H](Cc1ccccc1)C(N)=O
notes: X = Nle or Nal

The first assay deals with T1, human cholecystokinin-2 receptor. The experiment in a line: cell-based or functional assay.
Details: not given
“Asp-Phe(4-sulfomethyl)-Leu-Gly-Trp-Nle-DMeAsp-MePhe-amide (peptide)” displayed an EC50 (CCK-2R) of over 1000 nM.

For “Asp-sTyr-Leu-Gly-Trp-Nle-DMeAsp-Phe-amide (peptide)”, the EC50 (CCK-2R) was over 1000 nM.

Molecule “Asp-sTyr-His-Gly-Trp-Nle-DMeAsp-MePhe-amide (peptide)” showed an EC50 (CCK-2R) of over 1000 nM.

As for “2-[2-[2-[[2-[2-[2-[[(4S)-4-Carboxy-4-(17-carboxyheptadecanoylamino)butanoyl]amino]ethoxy]ethoxy]acetyl]amino]ethoxy]ethoxy]acetyl-DAsp-Phe(4-sulfomethyl)-Nle-Gly-Trp-Nle-DMeAsp-MePhe-amide (peptide)”, the EC50 (CCK-2R) was over 1000 nM.

For “2-[2-[2-[[2-[2-[2-[[(4S)-4-Carboxy-4-(13-carboxytridecanoylamino)butanoyl]amino]ethoxy]ethoxy]acetyl]amino]ethoxy]ethoxy]acetyl-Asp-Phe(4-sulfomethyl)-Leu-Gly-Trp-Nle-DMeAsp-MePhe-amide (peptide)”, the EC50 (CCK-2R) was over 1000 nM.

For “Asp-sTyr-Pro-Gly-Trp-Nle-DMeAsp-MePhe-amide (peptide)”, the EC50 (CCK-2R) was over 1000 nM.

As to “2-[2-[2-[[2-[2-[2-[[(4S)-4-Carboxy-4-(19-carboxynonadecanoylamino)butanoyl]amino]ethoxy]ethoxy]acetyl]amino]ethoxy]ethoxy]acetyl-Asp-Phe(4-sulfomethyl)-Leu-Gly-Trp-Nle-DMeAsp-MePhe-amide (peptide)”, the EC50 (CCK-2R) is over 1000 nM.

Molecule “2-[2-[2-[[2-[2-[2-[[(4S)-4-Carboxy-4-(17-carboxyheptadecanoylamino)butanoyl]amino]ethoxy]ethoxy]acetyl]amino]ethoxy]ethoxy]acetyl-Asp-Phe(4-sulfomethyl)-Nle-Gly-Trp-Nle-DMeAsp-MePhe-amide (peptide)” registered an EC50 (CCK-2R) of over 1000 nM.

As to “2-[2-[2-[[2-[2-[2-[[(4S)-4-Carboxy-4-(17-carboxyheptadecanoylamino)butanoyl]amino]ethoxy]ethoxy]acetyl]amino]ethoxy]ethoxy]acetyl-bAsp-Phe(4-sulfomethyl)-Nle-Gly-Trp-Nle-DMeAsp-MePhe-amide (peptide)”, the EC50 (CCK-2R) was over 1000 nM.

Regarding “Glu-sTyr-Leu-Gly-Trp-Nle-DMeAsp-MePhe-amide (peptide)”, the EC50 (CCK-2R) was found to be 920 nM.

The molecule “Asp-sTyr-Nle-Gly-Trp-Nle-DMeAsp-MePhe-amide (peptide)” displayed an EC50 (CCK-2R) of over 1000 nM.

For “2-[2-[2-[[2-[2-[2-[[(4S)-4-Carboxy-4-(17-carboxyheptadecanoylamino)butanoyl]amino]ethoxy]ethoxy]acetyl]amino]ethoxy]ethoxy]acetyl-DbAsp-Phe(4-sulfomethyl)-Nle-Gly-Trp-Nle-DMeAsp-MePhe-amide (peptide)”, the EC50 (CCK-2R) was over 1000 nM.

As for “Asp-sTyr-Ile-Gly-Trp-Nle-DMeAsp-MePhe-amide (peptide)”, the EC50 (CCK-2R) is over 1000 nM.

The molecule “DGlu-sTyr-Leu-Gly-Trp-Nle-DMeAsp-MePhe-amide (peptide)” gave an EC50 (CCK-2R) of over 1000 nM.

“2-[2-[2-[[2-[2-[2-[[(4S)-4-Carboxy-4-(15-carboxypentadecanoylamino)butanoyl]amino]ethoxy]ethoxy]acetyl]amino]ethoxy]ethoxy]acetyl-Asp-Phe(4-sulfomethyl)-Leu-Gly-Trp-Nle-DMeAsp-MePhe-amide (peptide)” came in with an EC50 (CCK-2R) of over 1000 nM.

B1 showed an EC50 (CCK-2R) of over 1000 nM.

Consider {C18 diacid-γGlu-AEEA-AEEA}-E[sY]LGWQ[dNMeD]F-NH2, for which the “EC50 (CCK-2R)” value was over 1000 nM.

Regarding E[sY]LGWQ[dNMeD]F-NH2 [Glu-sTyr-Leu-Gly-Trp-Gln-DMeAsp-Phe-amide], the “EC50 (CCK-2R)” value was over 1000 nM.

The next assay has as its target T2, human cholecystokinin-2 receptor (CCK-2R). The experiment in a line: In vitro potency on CCK-2R, whole cell functional assay (IP1 accumulation, IP-One HTRF). It is filed as cell-based.
Details: not given
For `CCCC[C@H](NC(=O)[C@H](Cc1c[nH]c2ccccc12)NC(=O)CNC(=O)[C@H](CC(C)C)NC(=O)[C@H](Cc1ccc(OS(=O)(=O)O)cc1)NC(=O)[C@H](CC(=O)O)NC(=O)COCCOCCNC(=O)COCCOCCNC(=O)CC[C@H](NC(=O)CCCCCCCCCCCCCCCCC(=O)O)C(=O)O)C(=O)N(C)[C@H](CC(=O)O)C(=O)N(C)[C@@H](Cc1ccccc1)C(N)=O` [Example 9, 2-[2-[2-[[2-[2-[2-[[(4S)-4-Carboxy-4-(17-carboxyheptadecanoylamino)butanoyl]amino]ethoxy]ethoxy]acetyl]amino]ethoxy]ethoxy]acetyl-Asp-sTyr-Leu-Gly-Trp-Nle-DMeAsp-MePhe-amide], the EC50 is 170 nM.

The assay is the same for the next values; noted with them: 1321-N1 cells stably expressing CCK-2R; IP1 accumulation; highest dose tested 1×10^6 pM; read-out: EC50 (CCK-2R).
As to `CCCC[C@H](NC(=O)[C@H](Cc1c[nH]c2ccccc12)NC(=O)CNC(=O)[C@H](CC(C)C)NC(=O)[C@H](Cc1ccc(OS(=O)(=O)O)cc1)NC(=O)[C@@H](N)CC(=O)O)C(=O)N(C)[C@H](CC(=O)O)C(=O)N(C)[C@@H](Cc1ccccc1)C(N)=O` [Example 60, Asp-sTyr-Leu-Gly-Trp-Nle-DMeAsp-MePhe-amide], the concentration giving a half-maximal response (EC50) came to 380 nM.

In the case of `CCCC[C@H](NC(=O)[C@H](Cc1c[nH]c2ccccc12)NC(=O)CNC(=O)[C@H](CC(C)C)NC(=O)[C@H](Cc1ccc(OS(=O)(=O)O)cc1)NC(=O)[C@H](CCC(=O)O)NC(=O)COCCOCCNC(=O)COCCOCCNC(=O)CC[C@H](NC(=O)CCCCCCCCCCCCC(=O)O)C(=O)O)C(=O)N(C)[C@H](CC(=O)O)C(=O)N(C)[C@@H](Cc1ccccc1)C(N)=O` [Example 36, 2-[2-[2-[[2-[2-[2-[[(4S)-4-Carboxy-4-(13-carboxytridecanoylamino)butanoyl]amino]ethoxy]ethoxy]acetyl]amino]ethoxy]ethoxy]acetyl-Glu-sTyr-Leu-Gly-Trp-Nle-DMeAsp-MePhe-amide] ({C14 diacid-γGlu-AEEA-AEEA}-E[sY]LGW[Nle][dNMeD][NMeF]-NH2), the EC50 stood at 150 nM.

In the case of `CCCC[C@H](NC(=O)[C@H](Cc1c[nH]c2ccccc12)NC(=O)CNC(=O)[C@H](CC(C)C)NC(=O)[C@H](Cc1ccc(OS(=O)(=O)O)cc1)NC(=O)[C@@H](CCC(=O)O)NC(=O)COCCOCCNC(=O)COCCOCCNC(=O)CC[C@H](NC(=O)CCCCCCCCCCCCCCCCC(=O)O)C(=O)O)C(=O)N(C)[C@H](CC(=O)O)C(=O)N(C)[C@@H](Cc1ccccc1)C(N)=O` [Example 49, 2-[2-[2-[[2-[2-[2-[[(4S)-4-Carboxy-4-(17-carboxyheptadecanoylamino)butanoyl]amino]ethoxy]ethoxy]acetyl]amino]ethoxy]ethoxy]acetyl-DGlu-sTyr-Leu-Gly-Trp-Nle-DMeAsp-MePhe-amide] ({C18 diacid-γGlu-AEEA-AEEA}-[dE][sY]LGW[Nle][dNMeD][NMeF]-NH2), the EC50 worked out at 46 nM.

On to `CCCC[C@H](NC(=O)[C@H](Cc1ccc(OS(=O)(=O)O)cc1)NC(=O)[C@H](CC(=O)O)NC(=O)COCCOCCNC(=O)COCCOCCNC(=O)CC[C@H](NC(=O)CCCCCCCCCCCCCCCCC(=O)O)C(=O)O)C(=O)NCC(=O)N[C@@H](Cc1c[nH]c2ccccc12)C(=O)N[C@@H](CCCC)C(=O)N(C)[C@H](CC(=O)O)C(=O)N[C@@H](Cc1c[nH]c2ccccc12)C(N)=O` [Example 1, 2-[2-[2-[[2-[2-[2-[[(4S)-4-Carboxy-4-(17-carboxyheptadecanoylamino)butanoyl]amino]ethoxy]ethoxy]acetyl]amino]ethoxy]ethoxy]acetyl-Asp-sTyr-Nle-Gly-Trp-Nle-DMeAsp-Trp-amide] ({C18 diacid-γGlu-AEEA-AEEA}-D[sY][Nle]GW[Nle][dNMeD]W-NH2), for which the half-maximal effective concentration (EC50) is over 1000 nM.

On to `CCCC[C@H](NC(=O)[C@H](Cc1c[nH]c2ccccc12)NC(=O)CNC(=O)[C@H](CC(C)C)NC(=O)[C@H](Cc1ccc(OS(=O)(=O)O)cc1)NC(=O)[C@H](CCC(=O)O)NC(=O)COCCOCCNC(=O)COCCOCCNC(=O)CC[C@H](NC(=O)CCCCCCCCCCCCCCC(=O)O)C(=O)O)C(=O)N(C)[C@H](CC(=O)O)C(=O)N(C)[C@@H](Cc1ccccc1)C(N)=O` [Example 39, 2-[2-[2-[[2-[2-[2-[[(4S)-4-Carboxy-4-(15-carboxypentadecanoylamino)butanoyl]amino]ethoxy]ethoxy]acetyl]amino]ethoxy]ethoxy]acetyl-Glu-sTyr-Leu-Gly-Trp-Nle-DMeAsp-MePhe-amide] ({C16 diacid-γGlu-AEEA-AEEA}-E[sY]LGW[Nle][dNMeD][NMeF]-NH2), for which the concentration giving a half-maximal response (EC50) stood at 110 nM.

Regarding `CCCC[C@H](NC(=O)[C@H](Cc1c[nH]c2ccccc12)NC(=O)CNC(=O)[C@H](Cc1c[nH]cn1)NC(=O)[C@H](Cc1ccc(OS(=O)(=O)O)cc1)NC(=O)[C@H](CC(=O)O)NC(=O)COCCOCCNC(=O)COCCOCCNC(=O)CC[C@H](NC(=O)CCCCCCCCCCCCCCCCC(=O)O)C(=O)O)C(=O)N(C)[C@H](CC(=O)O)C(=O)N(C)[C@@H](Cc1ccccc1)C(N)=O` [Example 48, 2-[2-[2-[[2-[2-[2-[[(4S)-4-Carboxy-4-(17-carboxyheptadecanoylamino)butanoyl]amino]ethoxy]ethoxy]acetyl]amino]ethoxy]ethoxy]acetyl-Asp-sTyr-His-Gly-Trp-Nle-DMeAsp-MePhe-amide] ({C18 diacid-γGlu-AEEA-AEEA}-D[sY]HGW[Nle][dNMeD][NMeF]-NH2), the EC50 is over 1000 nM.
